# B1: Vent(exo-) DNA polymerase (Thermococcus litoralis; D141A/E143A) (protein)
# chain 1: MILDTDYITKDGKPIIRIFKKENGEFKIELDPHFQPYIYALLKDDSAIEEIKAIKGERHGKTVRVLDAVKVRKKFLGREVEVWKLIFEHPQDVPAMRGKIREHPAVVDIYEYDIPFAKRYLIDKGLIPMEGDEELKLLAFAIATFYHEGDEFGKGEIIMISYADEEEARVITWKNIDLPYVDVVSNEREMIKRFVQVVKEKDPDVIITYNGDNFDLPYLIKRAEKLGVRLVLGRDKEHPEPKIQRMGDSFAVEIKGRIHFDLFPVVRRTINLPTYTLEAVYEAVLGKTKSKLGAEEIAAIWETEESMKKLAQYSMEDARATYELGKEFFPMEAELAKLIGQSVWDVSRSSTGNLVEWYLLRVAYARNELAPNKPDEEEYKRRLRTTYLGGYVKEPEKGLWENIIYLDFRSLYPSIIVTHNVSPDTLEKEGCKNYDVAPIVGYRFCKDFPGFIPSILGDLIAMRQDIKKKMKSTIDPIEKKMLDYRQRAIKLLAN
# chain 2: SYYGYMGYPKARWYSKECAESVTAWGRHYIEMTIREIEEKFGFKVLYAD
# chain 3: TDGFYATIPGEKPELIKKKAKEFLNYINSKLPGLLELEYEGFYLRGFFVTKKRYAVIDEEGRITTRGLEVVRRDWSEIAKETQAKVLEAILKEGSVEKAVEVVRDVVEKIAKYRVPLEKLVIHEQITRDLKDYKAIGPHVAIAKRLAARGIKVKPGTIISYIVLKGSGKISDRVILLTEYDPRKHKYDPDYYIENQVLPAVLRILEAFGYRKEDLRYQSSKQTGLDAWLKR
# notes: commercial exonuclease-deficient enzyme (New England Biolabs), mature intein-free form
# Key:
# [1] = substrate: Cc1cn([C@H]2C[C@H](O)[C@@H](COP(=O)(O)OP(=O)(O)OP(=O)(O)O)O2)c(=O)[nH]c1=O; assay: single nucleotide primer extension, 6-FAM primer, denaturing PAGE; assay type: biochemical, Thermococcus litoralis; details: apparent Km, 40 °C, primer P1 / template T1, correct insertion, 0.0125 U/μL enzyme
# From the text: (§1) single nucleotide primer extension, 6-FAM primer, denaturing PAGE on Vent(exo-) DNA polymerase
# [2] = substrate: NCCCCCCNC(=O)Cc1cn([C@H]2C[C@H](O)[C@@H](COP(=O)(O)OP(=O)(O)OP(=O)(O)O)O2)c(=O)[nH]c1=O; assay: as above; assay type: biochemical, Thermococcus litoralis; details: apparent Km, 40 °C, primer P1 / template T1, correct insertion, 0.0125 U/μL enzyme
# From the text: as §1
# [3] = substrate: NCCCCCCNC(=O)Cc1cn([C@@H]2O[C@H](COP(=O)(O)OP(=O)(O)OP(=O)(O)O)[C@@H](O)[C@@H]2O)c(=O)[nH]c1=O; assay: as above; assay type: biochemical, Thermococcus litoralis; details: apparent Km, 40 °C, primer P1 / template T1, correct insertion, 0.0125 U/μL enzyme
# From the text: as §1
# purified protein = substrate: Nc1ccn([C@H]2C[C@H](O)[C@@H](COP(=O)(O)OP(=O)(O)OP(=O)(O)O)O2)c(=O)n1; assay: purified protein; details: apparent Km, 40 °C, primer P1 / template T1, misinsertion, 0.0125 U/μL enzyme
protein,measurement,setting,value
B1,Km,[1],3 µM
same,kcat,[1],0.00567 s⁻¹
same,Km,[2],2.7 µM
same,kcat,[2],0.00483 s⁻¹
same,Km,[3],4.4 µM
same,kcat,[3],0.000817 s⁻¹
same,Km,purified protein,1700 µM
same,kcat,purified protein,0.00233 s⁻¹

# From article PMC6259326, “Study on Suitability of KOD DNA Polymerase for Enzymatic Production of Artificial Nucleic Acids Using Base/Sugar Modified Nucleoside Triphosphates” (Molecules, 2010)
